According to US20050002950:

Tests used:
[1] = biological target: T1, recombinant human C5a, P01031
T1 chain: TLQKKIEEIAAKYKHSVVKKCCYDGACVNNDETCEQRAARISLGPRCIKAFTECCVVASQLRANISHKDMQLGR

[2] = biological target: T2, purified human fibrinogen, depleted of fibronectin and plasminogen, P02671
T2 chain 1: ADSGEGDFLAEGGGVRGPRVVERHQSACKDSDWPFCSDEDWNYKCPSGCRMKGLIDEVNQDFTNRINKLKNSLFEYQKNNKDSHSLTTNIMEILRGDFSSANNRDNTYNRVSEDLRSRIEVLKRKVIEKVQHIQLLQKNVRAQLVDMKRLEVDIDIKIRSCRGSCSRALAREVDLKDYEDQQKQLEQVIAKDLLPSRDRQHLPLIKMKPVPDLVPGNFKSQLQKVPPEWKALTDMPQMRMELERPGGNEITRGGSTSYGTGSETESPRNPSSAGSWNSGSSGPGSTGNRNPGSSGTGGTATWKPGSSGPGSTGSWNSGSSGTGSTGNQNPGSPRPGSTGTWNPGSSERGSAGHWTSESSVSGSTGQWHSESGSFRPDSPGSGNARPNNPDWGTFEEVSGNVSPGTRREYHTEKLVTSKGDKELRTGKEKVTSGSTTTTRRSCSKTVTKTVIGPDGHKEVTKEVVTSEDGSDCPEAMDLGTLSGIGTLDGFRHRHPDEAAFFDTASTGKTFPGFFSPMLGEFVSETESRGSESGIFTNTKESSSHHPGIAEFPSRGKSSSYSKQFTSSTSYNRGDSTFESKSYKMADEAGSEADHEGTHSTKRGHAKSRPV
T2 chain 2: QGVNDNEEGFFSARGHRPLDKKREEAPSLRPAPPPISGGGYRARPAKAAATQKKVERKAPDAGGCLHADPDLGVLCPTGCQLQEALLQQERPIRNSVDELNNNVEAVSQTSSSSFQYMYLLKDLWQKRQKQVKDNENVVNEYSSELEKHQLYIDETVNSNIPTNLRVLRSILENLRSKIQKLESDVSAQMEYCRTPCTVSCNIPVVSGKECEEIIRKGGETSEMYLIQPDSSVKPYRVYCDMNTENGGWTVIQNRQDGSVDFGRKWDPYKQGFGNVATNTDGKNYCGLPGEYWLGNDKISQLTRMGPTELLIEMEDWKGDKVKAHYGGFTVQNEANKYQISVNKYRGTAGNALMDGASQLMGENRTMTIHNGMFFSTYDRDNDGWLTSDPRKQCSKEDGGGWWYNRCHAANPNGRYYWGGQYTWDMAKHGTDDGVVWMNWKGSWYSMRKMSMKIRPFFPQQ
T2 chain 3: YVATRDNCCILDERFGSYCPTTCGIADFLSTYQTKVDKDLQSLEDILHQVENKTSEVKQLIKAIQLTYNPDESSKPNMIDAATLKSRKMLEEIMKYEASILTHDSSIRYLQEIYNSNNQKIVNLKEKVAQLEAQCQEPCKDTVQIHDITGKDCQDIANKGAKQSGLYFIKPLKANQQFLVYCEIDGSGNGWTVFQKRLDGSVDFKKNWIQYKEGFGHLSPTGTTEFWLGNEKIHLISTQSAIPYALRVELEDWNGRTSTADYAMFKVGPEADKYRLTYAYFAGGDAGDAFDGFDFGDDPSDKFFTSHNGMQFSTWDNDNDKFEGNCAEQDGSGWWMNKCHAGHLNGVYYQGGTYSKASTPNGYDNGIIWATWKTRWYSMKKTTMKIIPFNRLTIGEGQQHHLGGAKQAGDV

[3] = biological target: purified human fibronectin, P02751
[4] = biological target: purified complement component C3

Chain of purified human fibronectin, P02751 (P02751 other isoform, or with tags, fused parts or gaps): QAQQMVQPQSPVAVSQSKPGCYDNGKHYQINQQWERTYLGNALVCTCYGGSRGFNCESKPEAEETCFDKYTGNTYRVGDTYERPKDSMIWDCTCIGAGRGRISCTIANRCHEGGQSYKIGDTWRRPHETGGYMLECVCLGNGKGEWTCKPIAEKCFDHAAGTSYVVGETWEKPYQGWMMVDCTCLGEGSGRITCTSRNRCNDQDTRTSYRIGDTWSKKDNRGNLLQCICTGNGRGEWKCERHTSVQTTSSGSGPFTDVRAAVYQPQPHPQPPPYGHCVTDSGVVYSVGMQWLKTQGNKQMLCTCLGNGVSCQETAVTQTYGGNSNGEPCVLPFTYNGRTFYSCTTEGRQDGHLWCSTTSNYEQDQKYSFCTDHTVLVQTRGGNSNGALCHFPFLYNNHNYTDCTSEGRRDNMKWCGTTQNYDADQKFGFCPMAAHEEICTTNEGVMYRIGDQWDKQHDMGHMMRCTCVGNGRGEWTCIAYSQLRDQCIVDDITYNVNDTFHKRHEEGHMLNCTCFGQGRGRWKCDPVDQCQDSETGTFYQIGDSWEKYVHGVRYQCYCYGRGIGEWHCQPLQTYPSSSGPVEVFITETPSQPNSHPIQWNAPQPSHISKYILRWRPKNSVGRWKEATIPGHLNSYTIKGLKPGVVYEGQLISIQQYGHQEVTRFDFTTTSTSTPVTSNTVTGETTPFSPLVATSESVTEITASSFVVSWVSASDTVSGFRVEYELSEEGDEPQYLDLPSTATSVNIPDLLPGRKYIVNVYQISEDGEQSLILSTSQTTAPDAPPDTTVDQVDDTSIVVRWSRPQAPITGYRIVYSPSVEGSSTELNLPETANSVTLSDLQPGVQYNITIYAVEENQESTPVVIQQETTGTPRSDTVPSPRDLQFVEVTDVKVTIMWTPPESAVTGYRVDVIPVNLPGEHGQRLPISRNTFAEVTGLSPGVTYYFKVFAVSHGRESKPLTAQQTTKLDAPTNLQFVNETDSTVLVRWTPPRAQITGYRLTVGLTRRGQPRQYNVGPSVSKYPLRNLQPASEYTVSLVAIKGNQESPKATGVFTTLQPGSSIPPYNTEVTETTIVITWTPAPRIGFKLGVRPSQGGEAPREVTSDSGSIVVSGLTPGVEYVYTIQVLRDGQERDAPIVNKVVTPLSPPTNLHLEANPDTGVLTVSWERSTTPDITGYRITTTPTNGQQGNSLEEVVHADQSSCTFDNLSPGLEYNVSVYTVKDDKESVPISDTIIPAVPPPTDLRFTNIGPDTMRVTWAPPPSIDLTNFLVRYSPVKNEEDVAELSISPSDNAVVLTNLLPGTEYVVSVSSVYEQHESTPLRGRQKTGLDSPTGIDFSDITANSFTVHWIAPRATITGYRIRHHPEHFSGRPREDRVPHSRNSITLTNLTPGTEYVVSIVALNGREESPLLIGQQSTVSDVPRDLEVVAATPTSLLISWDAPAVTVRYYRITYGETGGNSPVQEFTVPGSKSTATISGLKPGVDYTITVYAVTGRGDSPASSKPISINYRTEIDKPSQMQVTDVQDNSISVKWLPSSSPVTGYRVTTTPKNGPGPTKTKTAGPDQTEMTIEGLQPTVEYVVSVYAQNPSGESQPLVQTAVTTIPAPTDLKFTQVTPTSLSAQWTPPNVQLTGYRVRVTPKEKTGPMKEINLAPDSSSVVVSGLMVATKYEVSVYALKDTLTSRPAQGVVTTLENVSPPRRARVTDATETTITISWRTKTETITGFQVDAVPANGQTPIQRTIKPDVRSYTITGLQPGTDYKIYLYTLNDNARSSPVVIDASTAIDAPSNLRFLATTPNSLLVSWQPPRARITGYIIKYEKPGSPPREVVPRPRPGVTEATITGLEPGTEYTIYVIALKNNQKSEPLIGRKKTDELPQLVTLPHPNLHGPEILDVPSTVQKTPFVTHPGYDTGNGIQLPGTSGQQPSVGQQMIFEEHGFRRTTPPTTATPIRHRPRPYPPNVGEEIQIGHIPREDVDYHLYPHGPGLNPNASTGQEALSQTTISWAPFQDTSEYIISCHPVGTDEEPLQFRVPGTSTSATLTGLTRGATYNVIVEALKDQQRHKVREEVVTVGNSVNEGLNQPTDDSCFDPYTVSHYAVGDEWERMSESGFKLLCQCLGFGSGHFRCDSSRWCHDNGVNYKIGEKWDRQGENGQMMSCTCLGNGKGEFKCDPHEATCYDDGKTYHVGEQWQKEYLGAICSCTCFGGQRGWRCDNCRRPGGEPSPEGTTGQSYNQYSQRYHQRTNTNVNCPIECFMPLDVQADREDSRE

B1: CspA on whole cells of GBS strain COH1 (compared with the cspA mutant TOH121) (protein)
chain: DSVINKPSDIAVEQQVKDSPTSIANETPTNNTSSALASTAQDNLVTKANNNSPTETQPVTEPHSQATETFSPAANQPVESTQEVSKTPLTKQNLAVKPTPAISKETPQNIDSNKIITVPKVWNTGYKGEGTVVAIIDSGLDTNHDALQLNDSTKAKYQNEQQMNAAKAKAGINYGKWYNNKVIFGHNYVDVNTELKEVKSTSHGMHVTSIATANPSKKDTNELIYGVAPEAQVMFMRVFSDEKRGTGPALYVKAIEDAVKLGADSINLSLGGANGSLVNADDRLIKALEMARLAGVSVVIAAGNDGTFGSGASKPSALYPDYGLVGSPSTAREAISVASYNNTTLVNKVFNIIGLENNKNLNNGLAAYADPKVSDKTFEVGKQYDYVFVGKGNDNDYKDKTLNGKIALIERGDITFTKKVVNAINHGAVGAIIFNNKAGEANLTMSLDPEASAIPAIFTQKEFGDVLAKNNYKIVFNNIKNKQANPNAGVLSDFSSWGLTADGQLKPDLSAPGGSIYAAINDNEYDMMSGTSMASPHVAGATALVKQYLLKEHPELKKGDIERTVKYLLMSTAKAHLNKDTGAYTSPRQQGAGIIDVAAAVQTGLYLTGGENNYGSVTLGNIKDKISFDVTVHNINKVAKDLHYTTYLNTDQVKDGFVTLAPQQLGTFTGKTIRIEPGQTKTITIDIDVSKYHDMLKKVMPNGYFLEGYVRFTDPVDGGEVLSIPYVGFKGEFQNLEVLEKSIYKLVANKEKGFYFQPKQTNEVPGSEDYTALMTTSSEPIYSTDGTSPIQLKALGSYKSIDGKWILQLEQKGQPHLAISPNDDQNQDAVALKGVFLRNFNNLRAKVYRADDVNLQKPLWVSAPQAGDKNYYSGNTENPKSTFLYDTEWKGTTTDGIPLEDGKYKYVLTYYSDVPGSKPQQMVFDITLDRQAPTLTTATYDKDRRIFKARPAVEHGESGIFREQVFYLKKDKDGHYNSVLRQKGEDGILVEDNKVFIKQEKDGSFILPKEVNDFSHVYYTVEDYAGNLVSAKLEDLINIGNKNGLVNVKVFSPELNSNVDIDFSYSVKDDKGNVIKKQHHGKDLNLLKLPFGTYTFDLFLYDEERANLISPQSVTVTISEKDSLKDVLFKVNLLKKAALLVEFDKLLPKGATVQLVTKTNTVVDLPKATYSPTDYGKNIPVGDYRLNVTLPSGYSTLENLDDLLVSVKEGQVNLTKLTLINKAPLINALAEQTDIISQPVFYNAGTHLKNNYLANLEKAQTLIKNRVEQTSIDNAIAALRESRQALNGKETDTSLLAKAILAETEIKGNYQFVNASPLSQSTYINQVQLAKNLLQKPNVTQSEVDKALENLDIAKNQLNGHETDYSGLHHMIIKANVLKQTSSKYQNASQFAKENYNNLIKKAELLLSNRQATQAQVEELLNQIKATEQELDGRDRVSSAENYSQSLNDNDSLNTTPINPPNQPQALIFKKGMTKESEVAQKRVLGVTSQTDNQKIKTNKLPKTGESTPKITYTILLFSLSMLGLATIKLKSIKRE
[1]
  C5a protease activity (C5a-stimulated PMN adherence to gelatin-coated plastic after preincubating C5a with GBS): inactivation of CspA did not appear to have a detectable effect on C5a activity
[2]
  fibrinogen degradation assay (SDS-PAGE of supernatant after 16 h with whole GBS): COH1 cleaved the minor species (corresponding to the lower band of the doublet) of the α subunit, while the mutant did not cleave fibrinogen under the conditions employed
[3]
  degradation of the test substrate (Coomassie-stained SDS-PAGE or Western blotting): No difference in the cleavage of the test substrates was observed for all substrates except fibrinogen when the mutant and wild-type strains were compared
[4]
  degradation of the test substrate (Coomassie-stained SDS-PAGE or Western blotting): No difference in the cleavage of the test substrates was observed for all substrates except fibrinogen when the mutant and wild-type strains were compared
